The values below are quoted from earlier work in publication PMC9958082.

For this data set, the target named is E-cadherin (Homo sapiens) (UniProt P12830). The note with it: cited from earlier work.
UniProt P12830, sequence (P12830 155-709): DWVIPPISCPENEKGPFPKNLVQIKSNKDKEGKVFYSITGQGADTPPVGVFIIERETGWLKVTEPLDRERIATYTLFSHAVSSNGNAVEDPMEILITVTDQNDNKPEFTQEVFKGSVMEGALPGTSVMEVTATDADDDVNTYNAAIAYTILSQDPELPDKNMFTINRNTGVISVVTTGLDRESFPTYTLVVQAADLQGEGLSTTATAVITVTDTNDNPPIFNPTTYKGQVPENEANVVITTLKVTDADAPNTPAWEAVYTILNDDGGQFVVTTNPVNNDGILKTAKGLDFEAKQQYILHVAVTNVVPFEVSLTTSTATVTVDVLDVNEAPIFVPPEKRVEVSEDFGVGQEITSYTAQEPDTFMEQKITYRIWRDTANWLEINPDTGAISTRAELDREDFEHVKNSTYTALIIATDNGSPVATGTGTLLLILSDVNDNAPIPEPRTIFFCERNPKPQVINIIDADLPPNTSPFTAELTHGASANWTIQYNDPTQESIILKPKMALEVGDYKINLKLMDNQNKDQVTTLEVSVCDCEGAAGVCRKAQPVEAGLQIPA

For orientation: Kd means the free concentration of one partner at which half of the binding sites on the other are occupied at equilibrium, for simple one-to-one binding. As for “HA (hemagglutinin complex) (from UniProt P46085)”, the dissociation constant (Kd) is 2300 nM.
